The assay addresses T1, LpoB(sol) (signal sequence and lipid anchor of LpoB replaced by an oligohistidine tag).
T1 construct: also called His-LpoB(sol); source: E. coli BL21(DE3) with pET28LpoB, purified (HisTrap, thrombin, HiTrap Q flow-through, Superdex 200)
Briefly: SPR; IBIS-MX96; PBP1B Gly55AzF immobilised through its azide on a SensEye P-NH2 sensor coated with sulfo-dibenzylcyclooctyne-NHS ester, blocked with azidoethanol; LpoB injected at different concentrations; running buffer 10 mM Tris/maleate pH 7.5, 150 mM NaCl, 0.05 % Triton X-100; KD from maximum RU against concentration, one-site saturation. To be noted: both partners purified.

Where “and” joins values, the source holds several entries; their conditions need not be identical. Identical values can stand only once.

Among the data in paper PMC5298014, “Site‐Specific Immobilization of the Peptidoglycan Synthase PBP1B on a Surface Plasmon Resonance Chip Surface” (Chembiochem, 2016) are Kd values, retold here.

B1: PBP1B Gly55AzF (N-terminal His6-tagged PBP1Bγ with p-azidophenylalanine in place of Gly55) (enzyme)
chain: MPRKGKGKGKFRKPRGKRGWLWLLLKLAIVFAVLIAIYGVYLDQKIRSRIDGKVWQLPAAVYGRMVNLEPDMTISKNEMVKLLEATQYRQVSKMTRPGEFTVQANSIEMIRRPFDFPDSKEGQVRARLTFDGDHLATIVNMENNRQFGFFRLDPRLITMISSPNGEQRLFVPRSGFPDLLVDTLLATEDRHFYEHDGISLYSIGRAVLANLTAGRTVQGASTLTQQLVKNLFLSSERSYWRKANEAYMALIMDARYSKDRILELYMNEVYLGQSGDNEIRGFPLASLYYFGRPVEELSLDQQALLVGMVKGASIYNPWRNPKLALERRNLVLRLLQQQQIIDQELYDMLSARPLGVQPRGGVISPQPAFMQLVRQELQAKLGDKVKDLSGVKIFTTFDSVAQDAAEKAAVEGIPALKKQRKLSDLETAIVVVDRFSGEVRAMVGGSEPQFAGYNRAMQARRSIGSLAKPATYLTALSQPKIYRLNTWIADAPIALRQPNGQVWSPQNDDRRYSESGRVMLVDALTRSMNVPTVNLGMALGLPAVTETWIKLGVPKDQLHPVPAMLLGALNLTPIEVAQAFQTIASGGNRAPLSALRSVIAEDGKVLYQSFPQAERAVPAQAAYLTLWTMQQVVQRGTGRQLGAKYPNLHLAGKTGTTNNNVDTWFAGIDGSTVTITWVGRDNNQPTKLYGASGAMSIYQRYLANQTPTPLNLVPPEDIADMGVDYDGNFVCSGGMRILPVWTSDPQSLCQQSEMQQQPSGNPFDQSSQPQQQPQQQPAQQEQKDSDGVAGWIKDMFGSN
modifications: p-azidophenylalanine in place of Gly55; coupled through this azide to dibenzylcyclooctyne on the chip surface
For B1, the Kd is 710 to 970 nM and 840 nM.
